Data as given in the DeepSol protein solubility set.

experiment: soluble on expression in E. coli; label from the status in PepcDB or PDB records

Sequence | soluble on expression in E. coli
MSLATPSFGNSSPQLTFTHVANFMNDAAADVSAVDAKQLAQIRQFLKANKTNLIESLNTIRQNVTSSGDHNKLRSTIANLLQINVDNDPFFAQSEDLSHAVEFFMSERSSRLHIVYSLLVNPDIDLETYSFIDNDRFNVVGKLISIISSVIQNYDIITASSLAHDYNNDQDMFTIVSLVQLKKFSDLKFILQILQILNLMILNTKVPVDIVNQWFLQYQNQFVEFCRNINSTDKSIDTSSLQLYKFQNFQDLSYLSETLISRISSLFTITTILILGLNTSIAQFDIQSPLYMDTETFDTVNSALENDVATNIVNEDPIFHPMIHYSWSFILYYRRALQSSESFDDSDITKFALFAESHDVLQKLNTLSEILSFDPVYTTVITVFLEFSLNFIPITASTSRVFAKIISKAPEQFIENFLTNDTFEKKLSIIKAKLPLLNESLIPLINLALIDTEFANFELKDICSFAVTKSSLNDLDYDLIADTITNSSSSSDIIVPDLIELKSDLLVAPPLENENSNCLLSIPKSTKGKILTIKQQQQQQQNGQQPPTTSNLIIFLYKFNGWSLVGRILQNLLHSYMEKGTQLDDLQHELMISIIKLVTNVVDPKTSIEKSSEILSYLSNSLDTSASTINGASIIQVIFEIFEISLQRKDYTSIVQCCEFMTMLTPNYLHLVSSYLNKSDLLDKYGKTGLSNMILGSVELSTGDYTFTIQLLKLTKVFIRESLSLKNIHISKRSKIDIINKLILHAIHIFESYYNWKYNNFLQKFEIAFHLTLIFYDVLHDVFTINPHQKDQLIISSSANKLLQLFLTPMDSIDLAPNTLTNILISPLNTTTKILGDKILGNLYSKVMNNSFKLCTLLISIRGSNRDLKPSNLEKLLFINSSKLVDVYTLPSYVHFKVQIIELLSYLVEAPWNDDYPFLLSFLGEAKSMAFLKEVLSDLSSPVQDWNLLRSLYIFFTTLLESKQDGLSILFLTGQFASNKKINDESSIDKKSSILTVLQKNSLLLDSTPEEVSCKLLETITYVLNTWTNSKIFIKDPKFVNSLLAKLKDSKKLEGHHHHHH | not soluble
MSLATTSTEPPTELSGEITMWHSFTQGPRLESIQKSADAFMQKHPKTKIKIETFSWNDFYTKWTTGLANGNVPDISTALPNQVMEMVNSDALVPLNDSIKRIGQDKFNETALNEAKIGDDYYSVPLYSHAQVMWVRTDLLKEHNIEVPKTWDQLYEASKKLKEAGVYGLSVPFGTNDLMATRFLNFYVRSGGGSLLTKDLKADLTSQLAQDGIKYWVKLYKEISPQDSLNFNVLQQATLFYQGKTAFDFNSGFHIGGINANSPQLIDSIDAYPIPKIKESDKDQGIETSNIPMVVWKNSKHPEVAKAFLEALYNEEDYVKFLDSTPVGMLPTIKGISDSAAYKENETRKKFKHAEEVITEAVKKGTAIGYENGPSVQAGMLTNQHIIEQMFQDIITNGTDPMKAAKEAEKQLNDLFEAVQEGHHHHHH | soluble
MSLATTTSTDNTGLLDVLAPAYKKDTGVDLKWVAVGTGNALKLGENCDVDVVFVHAPKVELEYVEKGFGIDRTPVMYNDFVIIGNPSFKQKFTGMSVAEAFKLIEKEQVKFVSRGDKSGTHSKEREVWKEALGKIPEKESWYIEAGQGMLATINIAEEQKGLTLTDRGTFIKYESNHKGKPPMVIVLEGDNTLKNFYSIMAVNPKRCEKADYKGAKQFIDWIVSEKMQAEIANFKLLDKQLFTPDAKTREGHHHHHH | soluble
MSLAVLAPRVASVGVHSIDHFALEVPDLSAAKVFFGAFGLAVDETIDGLELRASASDHVWARVLKGSRKQLAYLSLNCFGDDLAALTAQVETAGGKPCAAHAGAHDPEGFWFEDPDGNRLQIRTGDKTSPGLKKAAVAAKVRRGLRGAAARHEAPAVHPTRLSHVLLFTPDIERAIQFYRDALGLKFSDGSKGIVAFMHGRHGSDHHLVAFVQSSAKGWHHSAWDVPTVEEVGLGKMQMARAGFVDGWGVGRHVLGSNHFHYVRDPWGSFCEYSADIDFVPPGVEWPSADHPPEDSLYLWGPDVPAYFIENTEAQREGHHHHHH | soluble
MSLAVTLKDVAEACGVSYSTVSKALKNSQLVKPNTKQMIQQKALEMNYIPNHSARALVSKKSGTIGLIWPSVDRVAVTHLITEINLAIKSLGYVMFVSIDDVAAASKKFVEFGCDGIIIFDEDETTNLPPEIYNNVPVVAYGVDRDIPYPIVNVNHAEAMIIAIKELLAKGIDRIDYIGDIHTNDARQIAKKDAIANYCEQHHIQYRMIDSSGLNAIEAETSVKHFLQESSLAPGVICGSYDITVGTINAMGSDEQPIIYSYDNIPQIKKIDYPVQAIGVPTAEIAQQVVAILDKVIKGEPIENTYHLHPSLSHNQEGHHHHHH | soluble
MSLAVVASAVAGCGQVRVGQVEPAPGSPTRAQVEDMLGRVRVVAERGRPGGYDRDCGRGGGCVFGPAWTDDHGGAEGHNGCDTRNDVLAAQLSDVRYREGTRDCVVVAGTLRDPYTGRLLEFRKADARDVQIDHVYPLAAAWDLGAAGWSPEQRVRFANDTVTNLMATAGAVNQAKGDATPAEWMPPARANHCFYAGKYLTVAVRYDLPVTAADNAVLHAIARTCPEGHHHHHH | soluble
MSLAYFGIYDGHGGAEASLYAKEHLMNTIVSQKLFWSENDDDVLKSIREGYIQTHYSMWREQEKWPKTSSGLPSTAGTTASIAFIRRGKIYIGHVGDSGIVLGYQNDKESANDGRWVATPLTEDHKPESYAEKMRIMSCGGKVVTKSGVPRVVWNRPRIGHKGPVRRSTPIDEIPFLAVARSLGDLWSYNSAMDEFVVSPVPDVSVIEIDPKKYRCLIFGSDGLWNVMSPKNAVDIVRNAEMENVRIALEGGNEWKNPSKLLVNEALDRWSRSNMKADNTSVVIIMLDPEGHHHHHH | not soluble
MSLDAGRHRVALLVPLTGANAAVGQSIANAATMALLDTNAANMRITTYDTASGAGSAASRAISDGNKLILGPLLGNDVVLVSNVARPAKVPMITYSNDSAVASRDVFVMGQAPGQSVARVLGFAKSKGIGSVAAIIPTGDYGQRAMNAVVDSGRALGVTVTAIETYDRGNTSVASAVRRVKEKGRFDALLIADGSRIALQAAPLAGKGVKLLGTELWSGEAAIAKSPATRGSWFAAVSDGRFGQFEKSYRTRFGATPSRLATLGYDSVLLTLNVARNWKPGTTFPTAKLYDPQGFIGLDGVFRFTASGMAERAMEVREVGAGTFTTVSPAEGHHHHHH | soluble
MSLDDESYEEEHKRMVLKIHQEFWDLPTNYQEKPLVFGSQAKNRYKTILPNEHSRVILEPERSPAAGGEPYINANYIKGPDYANNSYIATQGPLPNTIYEFWLMVYQNVVRTATVAGRSCASAGLEQKIVMLTNFVENGRQKCAIYFPQTADEWVAFGSGADIDVGEMLREKDTITASIAAAEQQPEGQEAVGGVCQPVTVRVPCASCFFLVHNVAVEQRNGYTVRTLNVIYGAKVSDADAPDGDGSRALFELTQFRAHHYWFPDWPDHRSPKDINVLLDLSLDVLGSNVVDTPRPESSNSLKGNQPGTPGLEEVMGAAQLAALSSSCTPTVLPIVHSSAGIGRTGCLIAILNGLRQLRLSVMAHQRKQQQLKQSQAQTGEAGQGELHGSEGRRKSTVQMDGATLLAPNAAVGRGGQREGSAVVRESGQVDILGIVCNLRLQRGGMVQNSEQYELIHRALCLYLEKLTQDGQEGHHHHHH | soluble
MSLDDSYRIRHIVVKDEEEAREVLKELKGGSSFEAVAAERSTDRYTSPYGGDLGFVTEASDNIPSAYIEEAKTLKEDEWSQEPIKVSNGYAIIQLKEKLKARTFSFDEVKDQIRRQIAMDQLGDKATVKTLWKEADVSWFYGEKSTKEGHHHHHH | soluble
MSLDEILKQEMQKELTTRILPYWMERMVDQENGGFYGRITGQEELMPRADKGAILNARILWTYSAAYRLLGREEYKEMANRAKRYLIDHFYDSEFGGVYWSLNYRGEPLDTKKQIYAIGFAIYGLSEFHRATGDPEALMYAVRLFNDIESHSFDGLKNGYCEALTREWNEIADMRLSEKDANERKTMNTHLHILEPYTNLYRVWKDARLERQLYNLIGLFTEKILDKDTSHLQLFFDNDWQSKYPVVSYGHDIEASWLLHEAARVLGDAGLIAEIEPVVKKIAAAASEGLTSDGGMIYEKNLTTGHIDGDYHWWVQAETVVGYYNLFRYFGDRGALQHSIDCWEFIKRHLTDDVHGEWFWSLRADGSLNRDDDKAGFWKCPYHNGRMCIELLGEGHHHHHH | soluble
MSLDGSVAAAGLGLGLPTTDSRGHYQLLLSGRALADRYRRIYTTALSDRDQAGSSTGHPASRNKKILNKKKLKRKQKSKSKVKTRSKSENVENTVIIPDIKLHSNPSAFNIYCNVRHCVLEWQKKETSLAAASKNSVQSGESDSDEEEESREPPIKLPKIIEVGLCEVFELIKETRFSHPSLCLRSLQALLNVLQGQQPEGLQSEPPEVLESLFQLLLEITVRSTGMNDSTGQSLTALSCACLFSLVASWGETGRTLQAISAILTNNGSHACQTIQVPTILNSLQRSVQAVLVGKIQVQDWFSNGIKKAALMHKWPLKEVSVDEDDQCLLQNDGFFLYLLCKDGLYKIGSGYSGTVRGHIYNSTSRIRNRKEKKSWLGYAQGYLLYRDLNNHSMTAIRISPETLEQDGTVLLPDCHTEGQNILFTDGEYINQIAASRDDGFVVRIFATSTEPVLQQELQLKLARKCLHACGISLFDLEKDLHIISTGFDEESAILGAGREFALMKTANGKIYYTGKYQSLGIKQGGPSAGKWVELPITKSPKIVHFSVGHDGSHALLVAEDGSVFFTGSASKGEDGESTKSRRQSKPYKPKKIIKMEGKIVVYTACNNGSSSVISKDGELYMFGKDAIYSDSSSLVSDLKGHFVTQVAMGKAHTCVLMKNGEVWTFGVNNKGQCGRDTGAMNQGGKGFGVENMATAMDEDLEEELDEKDEGHHHHHH | not soluble
MSLDHPPLCVLLVDDDSLVLDSTTLLLEDLGHRVIRAASGAQALQCLEQHRDIQLMISDMAMPHMDGRQLAEAVRRLHPQLPIILASGYAQRQDGPVPELPRIFKPFSQAQLRDALAQVLAQSAEGHHHHHH | soluble
MSLDIEEARTTGIIDDKEAESRSESLEKAYLKTPLDPWKGEICTVSLSAAAHESRVVPISHKVGQVFEPSMDRDEARKLVLDLLDEYLFKNEKVLKIAVNLSFETKYAAKYGKYILGKVADPLIMWVRCLQIAAPQKINNPKKPTSGWGLKPATKHIFGVTMNDFSALLKKYKVNFFDEIDASKGEGLLYSAEDSDYAVQHYEYWSQIAAQISRYEEWLHKIEMPFTRVIGLMEYWGMNWDPNLATQKKQEAEIMQEQAAERIKQIAKETFNIDINTGKSGKTNEVKSLMFDYLKIPIAKYGKTGASLDQEALIDMAFMLENKLNDIDEEKYLGVSLPENWENIDPEKDPTLDKLERGAIRIAKREPHPYKEQALEVIDQLKKIQKYTTLLSSHIIGREKYLNFMSGRIHAGYSPFTETGRLNSFNPNGQNVPRPDNDEFKIRNFFVPKPGKILFFIDFSGFELRLMAWKSGDEVMTELFNTGGDMHRRTASVMTGKSEAEIVKKERTDAKAGNFGISYGGTEHALQFTFKTKYMIRKTLDECAQIVNAVKTAYKRIPEYQRKIVLEAREQGYVQTIYGYMRLLPGINSANRRDRGSAERQAANTPVQGSAADIMKKVQNEIYESIGKQEGVLSHGSADMIAQIHDEIIFEIDDDPEIVVAVEKQIKQVMEQPPVPGFPVPIEAEGSVGYRWGEKMSVESWLKQREGHHHHHH | soluble
MSLDIMITHKKIYSSLLNTKSRLNFKDTVQSGQSFRWNLNETLKSYYSSVIYNSIIFICEINSEMIEVLCTDQELSGKPINEFLKHLFSLDFQEETVFSSRFQQEFPEVWNLVQSYRSVRVMRQDPFEIMVTFMCAQGIGMHLIRRQVSMIAERYGQKIMLELPEGNLTFHSFPPPQALASADPNELAVCTNNNRIRAANIIAMARSFESGKLALACVDSGKCDLETLRETLCVHSGIGLKIADCIALFGLGRFDAFPIDTHVKQYLWEWFGIEEARHSLTEKNYRILQEKARAILGAEYAGYAGHILFHCWRKEVKKMKAEGHHHHHH | soluble
